Measurements published in US20250019450A1 (DIAGONAL THERAPEUTICS, published 2025).

T1: human IL-12Rβ2, Acro (BLI analyte) (human, UniProt Q99665 24-622, limits assumed)
T1 sequence (looked up): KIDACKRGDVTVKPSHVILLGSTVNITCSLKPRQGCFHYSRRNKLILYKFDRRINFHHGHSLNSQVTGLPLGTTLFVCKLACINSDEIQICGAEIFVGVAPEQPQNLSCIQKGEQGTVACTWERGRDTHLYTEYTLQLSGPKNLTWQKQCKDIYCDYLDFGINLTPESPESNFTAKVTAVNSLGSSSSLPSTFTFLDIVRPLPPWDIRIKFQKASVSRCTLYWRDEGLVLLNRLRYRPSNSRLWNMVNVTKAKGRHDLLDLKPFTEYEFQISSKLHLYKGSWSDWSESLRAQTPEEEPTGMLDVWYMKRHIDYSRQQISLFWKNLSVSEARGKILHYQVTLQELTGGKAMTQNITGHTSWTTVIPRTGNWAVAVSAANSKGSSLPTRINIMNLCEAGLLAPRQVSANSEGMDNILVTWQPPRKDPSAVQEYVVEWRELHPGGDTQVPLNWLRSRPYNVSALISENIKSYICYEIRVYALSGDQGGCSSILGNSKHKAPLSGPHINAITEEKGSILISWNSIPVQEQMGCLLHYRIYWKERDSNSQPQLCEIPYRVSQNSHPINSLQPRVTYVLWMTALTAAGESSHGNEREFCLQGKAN

B1: DGL495 (bispecific antibody, V domains shown)
V domain 1: EVQLVESGGGLVQAGGSLRLSCAASGLTFRNYAMAWFRQAPGKEREFVAGITWGGGLTHYVDSVKGRFTISRDNGKNTVYLQMNSLKSEDTAVYYCAGKTQGSTWYHLTPDGYDYWGQGTQVTVEP
V domain 2: QVQLVESGGGLVQPGGSLRLSCAASGFTFSNYAMSWVRQAPGKGLEWVSAINSDGTSTSYADSVKGQFTISRDNAKNTLYLQMNSLKPEDTAVYYCTKWEGDTDSDYKFKDYWGQGTQVTVEP
B2: DGL481 (bispecific antibody, V domains shown)
V domain 1: QVQLVESGGGLVQAGGSLRLSCAASARIFNSYAVAWFRQTPGKEREFVASISWSGGSTNYADSVKGRFTISRDNAKNTVFLQMNSLKPADTAVYYCAADRNYYPSVLGKYTYWGQGTQVTVEP
V domain 2: B1 V domain 2
notes: 67B1 x 19B2
B3: DGL606 (bispecific antibody, V domains shown)
V domain 1: QLQLVESGGGLVQPGGSLRLSCAASGFTFSSYGMSWVRQAPGKGLEWVSYISAGGGTTTYVDFVKGRFTISRDNAKNMLYLQMNSLKPEDTAVYYCVHAADGSRGQGTQVTVEP
V domain 2: QVQLEESGGGLVQAGGSLRLSCAASGRTFSSYVVGWFRQAPGKEREFVGRISWSGARTYYADSVEGRFTISRDNAKNTVYLQMNSLKPEDTAVYYCAADLKWEVLLSEHYEYWGQGTQVTVEP
notes: 238B1 x 219B2
B4: DGL568 (bispecific antibody, V domains shown)
V domain 1: QVQLVESGGGLVQAGGSLRLSCAASRSISSFNEMAWYRQAPGEQRELVATIVSTVGFTNYADSVKGRFTISRDNAKNTVYLQMNSLKAEDTAVYYCNARRISTDYWGQGTQVTVEP
V domain 2: QVQLVESGGGLVRPGGSLRLSCAASGFTFSSNGMHWFRQAPGKGLEWVSSIGSGGTSIYYADSVKGRFTISRDNAKNTLYLQMNSLKSDDTAVYYCSKEVTGATRGQGTQVTVEP
notes: 233B1 x 13B2
B5: DGL514 (bispecific antibody, V domains shown)
V domain 1: QVQLVESGGGLAQAGGSLRLSCAASGRTFSNDDMAWFRQAPGKEREFVAHIDRNAASTNYADSVKGRFTISRDNAKNTVYLQMTRLKPEDTAVYYCAADPDHFGTTWYQQYTYWGPGTQVTVEP
V domain 2: QVQLVESGGGLVQPGGSLRLSCAASGFTFSNYAMSWIRQGPERGFEWVSRINSGGGTTSYADSVKGRFTISRDNAKNTLYLQMNSLKPEDTAVYYCAKHSHPDYSSNYYRPGQGTQVTVEP
notes: 97B1 x 67B2
B6: DGL601 (bispecific antibody, human IgG1, lambda)
heavy 1: not shown
heavy 2: QVQLVESGGGLVQPGGSLRLSCAASGFTFSNYAMSWVRQAPGKGLEWVSAINSDGTSTSYADSVKGQFTISRDNAKNTLYLQMNSLKPEDTAVYYCTKWEGDTDSDYKFKDYWGQGTQVTVEPKSSDKTHTCPPCPAPEAAGAPSVFLFPPKPKDTLMISRTPEVTCVVVDVSHEDPEVKFNWYVDGVEVHNAKTKPREEQYNSTYRVVSVLTVLHQDWLNGKEYKCKVSNKALPAPIEKTISKAKGQPREPQVCTLPPSRDELTKNQVSLSCAVKGFYPSDIAVEWESNGQPENNYKTTPPVLDSDGSFFLVSKLTVDKSRWQQGNVFSCSVMHEALHNRFTQKSLSLSPG
light: SSELTQDPAVSVALGQTVRITCQGDSLSSYYAGWYQQKPGQAPVLVIYGKNNRPSGIPDRFSGSSSEDTASLTITGAQAEDEADYYCNSRDSSDNHLVFGGGTKLTVLGQPKAAPSVTLFPPSSEELQANKATLVCLISDFYPGAVTVAWKADSSPVKAGVETTTPSKQSNNKYAASSYLSLTPEQWKSHRSYSCQVTHEGSTVEKTVAPTECS
notes: 85801_04M04A x 19B2
B7: DGL570 (bispecific antibody, V domains shown)
V domain 1: B4 V domain 1
V domain 2: QVQLVESGGGLVQPGGSLRLSCAASGFTFSSKAMHWFRQAPGKGLEWVSSINSGGAITYYKDSVKGRFTVSRDNAKNILYLEMNSLKPEDTALYYCATDTDGRTRGQGTQVTVEP
notes: 233B1 x 64B2
B8: DGL605 (bispecific antibody, V domains shown)
V domain 1: B3 V domain 1
V domain 2: QVQLVESGGGLVQPGGSLRLSCAASGFTFEPYDMSWFRQAPGKGPEWVSAIDKGGGAGATYYADSVKGRFTISRDNAKKTLYLQMKSLKPEDTAVYYCAITAGPYSDSTPRVAYRGEGTQVTVEP
notes: 238B1 x 93B2
B9: DGL534 (bispecific antibody, V domains shown)
V domain 1: QVQLVESGGGLVQAGGSLRLSCLASGRTSNYFMGWFRQAPGKEREFVAAISRSGGGTWYADSVKGRFAISRDNAKNTVNLQMNSLKREDTAVYYCAADRRTGTSVYTVDEYDYWGQGTQVTVEP
V domain 2: B1 V domain 2
notes: 115B1 x 19B2
B10: DGL482 (bispecific antibody, V domains shown)
V domain 1: B2 V domain 1
V domain 2: B7 V domain 2
notes: 67B1 x 64B2
B11: DGL515 (bispecific antibody, V domains shown)
V domain 1: B5 V domain 1
V domain 2: QVQLVESGGGLVQAGGSLRVSCAASGRIPSLNTMAWYRQAPGKQREFVAFITNGGTTNYVDSVEGRFSISRDNTKNAVDLQMNSLKPEDTGVYYCNVQISQYPYNYWGQGTQVTVEP
notes: 97B1 x 85B2
B12: DGL487 (bispecific antibody, V domains shown)
V domain 1: B2 V domain 1
V domain 2: QVQLQESGPGLVKPSQTLSLTCTVSGGSITTNYYYWSWIRQPPGKGLEWMGAIAYSGSTYYSPSLKSRTSISRDTSKNQFTLQLSSVTPEDTAVYYCASGINFYSNYPTLNEYDYWGQGTQVTVEP
notes: 67B1 x 190B2
B13: DGL607 (bispecific antibody, V domains shown)
V domain 1: QVQLVESGGGLMQAGGSLRLSCALSRGIFSAYAMGWFRQVQGKEREFVSGISRSGSTTDYVDTAKGRFTISRDNARDTVYLQMNSLKPEDTAVYYCAAVTGTFPSSTYHNANAYHHWGQGTQVTVEP
V domain 2: QVQLVESGGGLVQAGGSLKLSCAASGGTFSSYAMGWFRQAPGKEREFVAVIMRSGDTTAYVDSVKGRFTVSRDNAKNTVYLQMNSLKPEDAAVYFCAAGRPVTRTYYHTYTYPHDYDYWGQGTQVTVEP
notes: 86B1 x 278B2
B14: DGL444 (bispecific antibody, human IgG1, lambda)
heavy 1: not shown
heavy 2: QVQLVQSGAEVKKPGASVKVSCKASGYTFIGYYIHWVRQAPGQGLEWMGWINPHSGGTNYAQKFQGRVTMTRDTSISTAYMELSRLRSDDTAIYYCTKEANNWGYAFDIWGQGTMVTVSSASTKGPSVFPLAPSSKSTSGGTAALGCLVKDYFPEPVTVSWNSGALTSGVHTFPAVLQSSGLYSLSSVVTVPSSSLGTQTYICNVNHKPSNTKVDKKVEPKSCDKTHTCPPCPAPEAAGAPSVFLFPPKPKDTLMISRTPEVTCVVVDVSHEDPEVKFNWYVDGVEVHNAKTKPREEQYNSTYRVVSVLTVLHQDWLNGKEYKCKVSNKALPAPIEKTISKAKGQPREPQVCTLPPSRDELTKNQVSLSCAVKGFYPSDIAVEWESNGQPENNYKTTPPVLDSDGSFFLVSKLTVDKSRWQQGNVFSCSVMHEALHNRFTQKSLSLSPG
light: not shown
notes: 195B1 x 85802_08F20A
B15: DGL586 (bispecific antibody, V domains shown)
V domain 1: QVQLVESGGGLVQAGGSLRLSCAASGRTFSSYVMGWFRQAPGQEREFVAAIMRNGIMTYYADSVKGRFTISRDNAKNTVYLQMNTLKPDDTAVYYCAAASRVGVSISQSSSYTSWGQGTQVTVEP
V domain 2: B1 V domain 2
notes: 258B1 x 19B2

The binders below were run against human IL-12 receptor (IL-12Rβ1 and IL-12Rβ2) on HEK-Blue IL-12 cells (human, UniProt P42701 24-662; Q99665 24-862) (assay: cell-based or functional assay).
B1 was tested, and the EC50 was 6.4e-10 M (implied) and the “Max Absorbance” value was 0.96. In the case of B2, the EC50 is reported as 3.3e-10 M (implied) and the “Max Absorbance” value is reported as 0.93. B3 was tested, and the EC50 was 8.8e-09 M (implied) and the “Max Absorbance” value was 0.92. B4 was tested, and the EC50 was > 100 nM and the “Max Absorbance” value was 0.91. In the case of B5, the EC50 is reported as 3.5e-11 M (implied) and the “Max Absorbance” value is reported as 0.85. With B6 the EC50 was 6.6e-11 M (implied) and the “Max Absorbance” value was 0.79. For B7, the EC50 was > 100 nM and the “Max Absorbance” value was 1.44. B8 was tested, and the EC50 was 4.6e-10 M (implied) and the “Max Absorbance” value was 0.74. B9 was tested, and the EC50 was 4.5e-10 M (implied) and the “Max Absorbance” value was 0.69. B10 was tested, and the EC50 was 2.9e-09 M (implied) and the “Max Absorbance” value was 0.68. B11 was tested, and the EC50 was > 100 nM and the “Max Absorbance” value was 0.64. For B12, the EC50 was 3.1e-09 M (implied) and the “Max Absorbance” value was 0.64. With B13 the EC50 was 7e-09 M (implied) and the “Max Absorbance” value was 0.61. For B14, the EC50 was 1.5e-10 M (implied) and the “Max Absorbance” value was 0.61. B15 was tested, and the EC50 was 7.7e-11 M (implied) and the “Max Absorbance” value was 0.6.

Each binder was assayed against human IL-12Rβ1, Acro (BLI analyte) (human, UniProt P42701 24-545) (assay: BLI (Octet), antibody on AHC tip).
A Kd of 10.7 nM was found for B1 in this work. A Kd of 7.17 nM was found for B2 in this work. A Kd of 2.68 nM was found for B3 in this work. A Kd of 1.78 nM was found for B4 in this work. A Kd of 9.86 nM was found for B5 in this work. A Kd of 1.63 nM was found for B6 in this work. A Kd of 1.38 nM was found for B7 in this work. A Kd of 2.25 nM was found for B8 in this work. A Kd of 59.5 nM was found for B9 in this work. A Kd of 6.83 nM was found for B10 in this work. A Kd of 20.8 nM was found for B11 in this work. A Kd of 5.49 nM was found for B12 in this work. A Kd of 27.4 nM was found for B13 in this work. A Kd of 8.96 nM was found for B14 in this work. A Kd of 7.26 nM was found for B15 in this work.

The binders below were run against T1, human IL-12Rβ2, Acro (BLI analyte) (assay: BLI (Octet), antibody on AHC tip).
A Kd of 0.77 nM was found for B1 in this work. A Kd of 0.772 nM was found for B2 in this work. A Kd of 6.03 nM was found for B3 in this work. A Kd of 2.34 nM was found for B4 in this work. A Kd of 5.48 nM was found for B5 in this work. A Kd of 0.682 nM was found for B6 in this work. A Kd of 7.66 nM was found for B7 in this work. A Kd of 1.87 nM was found for B8 in this work. A Kd of 0.706 nM was found for B9 in this work. A Kd of 7.4 nM was found for B10 in this work. In the case of B11, the Kd is reported as < 0.001 nM. A Kd of 16.1 nM was found for B12 in this work. A Kd of 11.8 nM was found for B13 in this work. A Kd of 0.386 nM was found for B14 in this work. A Kd of 0.768 nM was found for B15 in this work.
